From patent publication US20250236682A1

Experiments:
[1] = target: HER2 on human cancer cell lines (NCI-N87, BT474, SK-OV-3, SNU-1, SNU-5, SNU-601) (human) (UniProt P04626); test: flow cytometry Fc load, SK-OV-3 cells
[2] = target: HER2 on human cancer cell lines (NCI-N87, BT474, SK-OV-3, SNU-1, SNU-5, SNU-601) (human) (UniProt P04626); test: flow cytometry Fc load, SNU-5 cells
[3] = target: HER2 on human cancer cell lines (NCI-N87, BT474, SK-OV-3, SNU-1, SNU-5, SNU-601) (human) (UniProt P04626); test: flow cytometry Fc load, BT474 cells
[4] = target: human HER2 recombinant protein (R&D systems, 1129-ER) (human) (UniProt P04626); test: BLI sequential binding on HER2-loaded sensor
[5] = target: HER2 on human cancer cell lines (NCI-N87, BT474, SK-OV-3, SNU-1, SNU-5, SNU-601) (human) (UniProt P04626); test: flow cytometry Fc load, NCI-N87 cells
[6] = target: HER2 on human cancer cell lines (NCI-N87, BT474, SK-OV-3, SNU-1, SNU-5, SNU-601) (human) (UniProt P04626); test: flow cytometry Fc load, SNU-1 cells
[7] = target: human FcγRI (R&D systems, 1257-FC) (human) (UniProt P12314); test: BLI, His-FcγRI on HIS1K sensor
[8] = target: human HER2 on CT26-HER2 cell line (Clone #2-60) (human) (UniProt P04626); test: flow cytometry Fc load, CT26-HER2 (#2-60) cells
[9] = target: HER2 on human cancer cell lines (NCI-N87, BT474, SK-OV-3, SNU-1, SNU-5, SNU-601) (human) (UniProt P04626); test: flow cytometry Fc load, SNU5 cells
[10] = target: human FcγIIA (R&D systems, 1330-CD) (human) (UniProt P12318); test: BLI, His-FcγRIIA on HIS1K sensor
[11] = target: HER2 on human cancer cell lines (NCI-N87, BT474, SK-OV-3, SNU-1, SNU-5, SNU-601) (human) (UniProt P04626); test: flow cytometry Fc load, SNU601 cells

Sequence of human FcγIIA (R&D systems, 1330-CD) (human) (P12318 36-218 H167R): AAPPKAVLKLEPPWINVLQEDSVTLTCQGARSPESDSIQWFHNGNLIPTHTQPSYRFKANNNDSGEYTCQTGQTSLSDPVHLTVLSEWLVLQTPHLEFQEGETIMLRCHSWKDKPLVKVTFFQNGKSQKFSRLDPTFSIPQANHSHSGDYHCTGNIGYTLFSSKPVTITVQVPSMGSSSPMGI
Sequence of human FcγRI (R&D systems, 1257-FC) (human) (P12314 16-288 limits assumed): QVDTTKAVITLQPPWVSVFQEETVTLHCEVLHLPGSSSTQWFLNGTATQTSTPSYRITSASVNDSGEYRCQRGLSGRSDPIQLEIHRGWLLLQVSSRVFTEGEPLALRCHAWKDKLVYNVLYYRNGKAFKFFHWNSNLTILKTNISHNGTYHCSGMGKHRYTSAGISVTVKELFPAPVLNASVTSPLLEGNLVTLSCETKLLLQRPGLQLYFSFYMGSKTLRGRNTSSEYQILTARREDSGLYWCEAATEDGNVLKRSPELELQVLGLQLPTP

Row | Substance | GMFI [1] | GMFI [2] | GMFI [3] | binding signal (nm shift, value at 4140 s minus value at 1260 s) [4] [nm] | GMFI [5] | GMFI [6] | Kd [7] [nM] | GMFI [8] | GMFI [9] | Kd [10] [nM] | GMFI [11]
1 | trastuzumab + pertuzumab (combination) | 6450 | 1390 | 38700 | 0.923 | 137000 | 2690 |  |  |  |  | 
2 | human IgG1 (Bio X cell, BE0297) (antibody) |  |  |  |  |  |  | 2.46 | 150 | 101 | 310 | 173
3 | pertuzumab (antibody) |  |  |  |  |  |  |  |  |  | 359 | 
